This is an account of results in US20040086863A1.

The target of assay [1] is IRS-1, endogenous in COS cells. Description: cell-based or functional assay.
For assay [2], the target named is IRS-1, endogenous in Rat-1 fibroblasts and L6GLUT4myc myoblasts (UniProt P35570). Description: cell-based or functional assay.
Chain of IRS-1, endogenous in Rat-1 fibroblasts and L6GLUT4myc myoblasts (P35570 whole entry): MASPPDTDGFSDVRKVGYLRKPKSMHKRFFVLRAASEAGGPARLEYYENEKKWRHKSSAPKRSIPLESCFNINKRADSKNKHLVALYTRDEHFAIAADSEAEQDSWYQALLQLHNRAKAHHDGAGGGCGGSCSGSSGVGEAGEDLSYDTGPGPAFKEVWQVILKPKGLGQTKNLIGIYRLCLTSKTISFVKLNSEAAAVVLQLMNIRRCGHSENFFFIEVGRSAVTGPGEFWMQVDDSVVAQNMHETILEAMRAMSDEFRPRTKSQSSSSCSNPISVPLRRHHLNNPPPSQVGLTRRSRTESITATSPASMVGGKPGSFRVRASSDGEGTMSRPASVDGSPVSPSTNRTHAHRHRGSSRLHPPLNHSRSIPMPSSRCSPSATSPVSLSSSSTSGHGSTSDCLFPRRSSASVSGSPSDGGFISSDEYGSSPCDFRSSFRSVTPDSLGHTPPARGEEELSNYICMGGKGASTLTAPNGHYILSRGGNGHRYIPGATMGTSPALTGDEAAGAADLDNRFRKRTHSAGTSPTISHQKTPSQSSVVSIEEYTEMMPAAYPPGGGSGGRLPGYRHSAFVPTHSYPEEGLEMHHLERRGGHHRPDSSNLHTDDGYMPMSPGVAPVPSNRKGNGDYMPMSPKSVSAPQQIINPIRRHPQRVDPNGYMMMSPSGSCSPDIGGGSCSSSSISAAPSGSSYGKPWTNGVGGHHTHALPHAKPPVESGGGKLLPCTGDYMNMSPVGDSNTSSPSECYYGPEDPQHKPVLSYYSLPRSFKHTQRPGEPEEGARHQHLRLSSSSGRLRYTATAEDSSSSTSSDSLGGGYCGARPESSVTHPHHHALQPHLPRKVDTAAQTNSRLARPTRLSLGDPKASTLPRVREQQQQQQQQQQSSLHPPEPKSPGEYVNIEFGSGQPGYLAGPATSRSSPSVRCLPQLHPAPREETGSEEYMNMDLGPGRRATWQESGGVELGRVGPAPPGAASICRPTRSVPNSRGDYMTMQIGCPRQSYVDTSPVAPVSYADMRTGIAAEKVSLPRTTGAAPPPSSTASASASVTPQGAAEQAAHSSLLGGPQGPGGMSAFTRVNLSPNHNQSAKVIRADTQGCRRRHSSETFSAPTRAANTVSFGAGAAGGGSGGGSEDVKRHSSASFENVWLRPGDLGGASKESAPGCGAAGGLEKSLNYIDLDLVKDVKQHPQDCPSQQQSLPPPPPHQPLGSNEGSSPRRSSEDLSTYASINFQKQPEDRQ

Chain of IRS-1, endogenous in COS cells (Q28224 whole entry): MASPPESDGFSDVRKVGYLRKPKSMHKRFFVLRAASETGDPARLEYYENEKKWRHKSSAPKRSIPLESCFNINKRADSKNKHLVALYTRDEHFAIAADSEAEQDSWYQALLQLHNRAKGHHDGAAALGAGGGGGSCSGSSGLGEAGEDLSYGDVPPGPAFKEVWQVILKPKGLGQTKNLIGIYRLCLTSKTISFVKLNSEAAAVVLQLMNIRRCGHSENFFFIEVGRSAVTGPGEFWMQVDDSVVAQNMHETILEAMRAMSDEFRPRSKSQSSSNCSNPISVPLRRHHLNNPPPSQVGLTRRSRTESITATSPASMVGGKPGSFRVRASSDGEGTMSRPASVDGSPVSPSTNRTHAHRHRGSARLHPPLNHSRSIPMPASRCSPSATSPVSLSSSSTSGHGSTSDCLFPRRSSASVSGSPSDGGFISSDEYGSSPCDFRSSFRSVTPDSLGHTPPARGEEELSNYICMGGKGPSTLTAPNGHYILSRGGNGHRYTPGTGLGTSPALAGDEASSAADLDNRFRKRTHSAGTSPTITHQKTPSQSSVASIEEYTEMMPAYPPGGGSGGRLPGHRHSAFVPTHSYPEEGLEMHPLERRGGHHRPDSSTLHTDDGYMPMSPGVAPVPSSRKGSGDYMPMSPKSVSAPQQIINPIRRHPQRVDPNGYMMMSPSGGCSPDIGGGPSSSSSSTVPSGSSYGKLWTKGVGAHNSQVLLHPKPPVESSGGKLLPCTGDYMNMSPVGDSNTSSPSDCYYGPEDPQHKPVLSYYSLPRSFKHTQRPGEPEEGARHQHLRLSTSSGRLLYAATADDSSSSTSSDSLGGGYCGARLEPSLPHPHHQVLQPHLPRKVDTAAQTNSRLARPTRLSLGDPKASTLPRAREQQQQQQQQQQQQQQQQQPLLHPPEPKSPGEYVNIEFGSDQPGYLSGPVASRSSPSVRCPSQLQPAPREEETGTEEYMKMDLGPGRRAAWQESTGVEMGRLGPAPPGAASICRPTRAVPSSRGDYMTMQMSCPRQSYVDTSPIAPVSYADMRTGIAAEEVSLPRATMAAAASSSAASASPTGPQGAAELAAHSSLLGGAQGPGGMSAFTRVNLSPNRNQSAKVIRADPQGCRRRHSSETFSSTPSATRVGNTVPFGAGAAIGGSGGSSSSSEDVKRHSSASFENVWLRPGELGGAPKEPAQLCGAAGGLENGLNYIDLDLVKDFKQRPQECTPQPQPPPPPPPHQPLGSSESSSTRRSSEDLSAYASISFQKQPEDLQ

On to “HA-tagged dominant-negative PHIP (DN-PHIP), PHIP PBR region alone (residues 8-209) (from UniProt Q8VDD9 927-1128)”, for which the IRS-1 tyrosine phosphorylation in insulin-treated cells in assay [1] was above 5 fold. This substance came in with an insulin-dependent GLUT4myc membrane translocation in L6GLUT4myc myoblasts in assay [2] above 90%.
